Measured values as given in PMC11776367, “Biochemical and Structural Characterisation of a Bacterial Lactoperoxidase” (Chembiochem, 2024).

Legend:
Assay in all cases: purified protein
Conditions in all cases: 0.5 mM H2O2, 50 mM KPi, 150 mM NaCl, pH 7.0, 25 °C
I = tested on: I
COc1ccccc1O = tested on: COc1ccccc1O
purified protein [1] = substrate: COc1cccc(OC)c1O; assay type: biochemical, cyanobacterium TDX16
purified protein [2] = substrate: I; assay type: biochemical, cyanobacterium TDX16
purified protein [3] = substrate: COc1ccccc1O; assay type: biochemical, cyanobacterium TDX16

Molecule | Km (I) | kcat (I) | kcat/Km (I) | Km (COc1ccccc1O) | kcat (COc1ccccc1O) | kcat/Km (COc1ccccc1O) | Km (purified protein [1]) | kcat (purified protein [1]) | kcat/Km (purified protein [1]) | Km (purified protein [2]) | kcat (purified protein [2]) | kcat/Km (purified protein [2]) | Km (purified protein [3]) | kcat (purified protein [3]) | kcat/Km (purified protein [3])
bovine LPO (Bos taurus) | 14 mM | 206 s⁻¹ | 15000 M⁻¹ s⁻¹ | 22 mM | 10 s⁻¹ | 500 M⁻¹ s⁻¹ |  |  |  |  |  |  |  |  | 
CyanoPOX (cyanobacterium TDX16) (protein, Predicted protein 556 residues; synthetic codon-optimised gene, His-tagged (calculated 58 kDa), E. coli NEB10beta, monomer) AQNRTIDGTDNNLSHNVWGSTNQHLDRAGPAAYADGMSMPAGGSRPSARAVSNGIAAQTGSMLNDRMLSDWVWQWGQFLDHDLDLTDAASPAESFPIPVPMGDPFFDPFNTGTQTIGLSRSAYDPATGSVDARQQMNQITSWIDASNVYGSDMTRANALRTMSGGRLATSAGDLLPFNTGGLPNAGGTSPSLFLAGDVRSNEQSGLAAVHTLFVREHNRLADQIAAANPGMGDEDIYQQARKIVGAQMQIITYNEFLPALLGSAAPSPMSIGYDDSINPNIMNEFANACYRVGHTMLSPTILRLDNAGNVIPHGNLALQDAFFNPNRIINEGGIAPILKGLASQAMQEIDNKIVDDVRNFLFGPPGSGGLDLASLNIQRGRDHGLPDYNSTRVMMGLTSVSSFADISSDPAVQAALMSLYGTVNDIDLWVGALAEDHLAGSSVGELIAAVLGEQFTRLRDGDRYWYERDDFFVNNPSLLAELQATRLSDIIRRNSDITNIQDNVFLIPEPATLGLLMFGAAFLRKRRS |  |  |  |  |  |  | 35 mM | 620 s⁻¹ | 18000 M⁻¹ s⁻¹ | 7 mM | 885 s⁻¹ | 126000 M⁻¹ s⁻¹ | 59 mM | 135 s⁻¹ | 2000 M⁻¹ s⁻¹
